Laboratory results taken from the RNAGym collection of RNA variant scans (doi:10.1073/pnas.2313332121).

B1: TPR t1 (parent)
chain: GACCAAUCUGCCCUCAGAGCUCGAGAACAUCUUCGGAUGCAGAGGAGGCAGGCUUCGGUGGCGCGAUAGCGCCAACGUCCUCAACCUCCAAUGCAUCCCACCACAUGAUGAUGCCUGAAGAGCCUUGGUUUUUUG

Variants of: B1
Assay: polymerase ribozyme fitness, log enrichment relative to wild type (log ratio); higher = more active; in vitro selection for triplet polymerase activity
Procedure, shortened: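 Mutant libraries for each subunit of a heterodimeric triplet polymerase ribozyme were made by PCR and then transcribed. Each library underwent one round of in vitro selection in triplicate: annealing with a biotinylated primer, the partner subunit and triplets, frozen incubation at −7 °C, gel excision of extended constructs, streptavidin-bead capture and RT-PCR. Input and output libraries were Illumina-sequenced, and only genotypes with ≥10 input reads and ≥1 read per output were kept. Fitness is the logarithm, base 2, of genotype enrichment over wild-type enrichment, computed from inverse-variance-weighted replicate averages.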

Variant	polymerase ribozyme fitness (log ratio)
C34A A119G	-2.03
G52C G60A U81A A83U	-5.15
U92C G120U G127A	-0.833
C12U G36U C94U A111G U116A	-2.07
C28G A50C U87A	-3.39
G10C U96G C97U G120C G135U	-5.98
G57C U92G G117A	-3.55
C12U G42A G128C U131G	-4.81
C13G A119U C123U	1.58
C82U A111G	-0.268
A50U C73U U87A	-0.904
C56G A90C A121G	1.01
U9A C62A C88U U92A	-4.26
G36C C49U C101G A119U	-3.31
G93C U132C	-1.62
G35A	-3.65
A18U G48U G61U C104U	-2.08
U7G G52U G57C C102A A111C	-2.69
C22U A24G G47A U54A G57A G61A U81A	-6.51
G17A C70A	-4.58
A5C G10A U92G	-3.52

Variant	polymerase ribozyme fitness (log ratio)
G65A A111C	-5.66
C12G C76A U116A	-3.37
C79G U112C G122C	-0.637
U78G C82G	-0.36
C28G G60A C79G	-4.94
C104A U106A	-2.51
C20G U54G C73A C89G A100C	-5.53
G44C A121C	0.904
A50C U55G G58C U81A C124A	1.51
G19U A46C G52C U54C U96C C114A	0.227
U7C C64U A100U	-0.384
A6U G48U C72U C94U A111C	-0.448
G39A A43G C73G U129G	-5.71
A6U C34U	-4.08
A27C U55C C70U U129G	-4.99
C20A C72G A75U C85A G110U	-5.51
C20A A68G U78C C123U	-4.98
G69A C89A	-4.54
G69C C101G G122A U125A	-3.83
C3U C12U G63A A66C U133A	-2.5
C53U G93C	-1.07

Variant	polymerase ribozyme fitness (log ratio)
A50U U54A G63C U112A	-2.51
G69A G77A	-2.61
C89A A95C	-3.6
C15G G117A	-1.61
U7G C70U C86U U92A	-3.6
G71U G110A	-1.39
A24U A41C G42U C62G A83G C94G C123A G127A	-6.99
C12G A100C G113U	-5.35
G47U U59C C97U G110C A121G U126C	-6.2
C20U G48U A91C C94G	-4.07
G60A C98U	-0.842
C70A A74U	-3.39
U7G G63C A91U	-2.27
G51C U130A	-3.62
G58A U109A	-4.85
A27U G51U C62A C70U C115G	-6.61
G61C A105C	-4.76
G48U C49A C73A C115U U133C	-1.19
G39U G48U A90U	-2.92
A50G G60C C94U	-4.35
C28U C64A A95G C115A U129C U134A	-4.91

Variant	polymerase ribozyme fitness (log ratio)
C12A A75G	-0.0398
A2G G120C	1.19
U9G G69U G107U	-2.73
G93U U96G U106A G127C	-3.43
C4U G71A G77A	-2.96
G69U C86U	-0.254
A16C A50U U54A C86G	-5.88
A29C C49A G77A U78A	-3.15
G36U G47U U59A G117C	-6.9
C13A G69U U129A	-1.63
C12A U55G G57A U109A G117U U132C U134G	-6.47
U112A G128U U131C	1.17
C70U	-0.414
C8G A29U C73A G120U	-0.106
C12G U38C G69U C123A	1.35
C53U U55G G63U U81C G93U U116C G135C	-5.21
C70U U129A	-1.55
C31U U38C	-5.6
C56U G69A U78G A83C	-4.4
C34U G71U	-3.99
C56U C72A C88U	-1.31
